For this data set, the system named is DnaA-his (Bacillus subtilis). Nature of the data set: IDAP-Seq (affinity pull-down). Particulars: 40 mM HEPES-KOH pH 7.6, 150 mM K-glutamate, 2.5 mM ATP or ADP, 10 mM Mg acetate, 0.2 mM DTT, 50 ug/ml BSA, 0.1 mM EDTA, 20% glycerol, 4% sucrose, 0.2 mg/ml ….

Where “and” joins values, the source holds several entries; their conditions need not be identical. Equal entries are not always repeated.

In the case of yutJ internal (peak 16), the Kd – broadly, a measure of binding affinity in units of concentration – is 2500 nM and 2900 nM. With yhdF internal, the binding signal (fold ATP/ADP DNA recovered) (550 nM DnaA) was determined as 24. Turning to yopH internal (peak 19), the Kd was 4900 nM and 5000 nM.

Consider yhcA internal (peak 12), for which the Kd was 3600 nM and 2800 nM.

Take “ynaI downstream / xynP upstream (peak 11)”: the Kd was 2000 nM and 3000 nM. On the same count and under the same terms, with “ywlC upstream / ywlB downstream (peak 6)” the figure was 250 nM and 450 nM; with oriC upstream of dnaA (peak 1), 210 nM and 330 nM. gcp/ydiF downstream (peak 4): the Kd is 150 nM and 330 nM.

On to “yydA upstream / yyzF downstream (peak 8)”, for which the Kd is 160 nM and 330 nM.

For the substance trmE upstream / jag downstream (peak 5), the Kd is 330 nM and 430 nM. For the substance rlmCD internal (peak 20), the Kd was 7500 nM and 6700 nM. On the same count and under the same terms, with rplB internal (peak 10) the figure was 1400 nM and 1200 nM; with ggaA internal (peak 18), 2700 nM and 4800 nM.

codV internal (peak 9): the Kd was 1100 nM and 1900 nM. Still for that read-out and setting: with yqeG/sda upstream (peak 7) the figure was 150 nM and 510 nM; with yhcN internal (peak 15), 19400 nM and 6900 nM.

For the substance yydH internal (peak 17), the Kd was 2400 nM and 4600 nM.

As to yorF internal (peak 13), the Kd is 2000 nM and 3000 nM. The same measure, in the same setting: the result for ywcI/vpr upstream (peak 3) reads 130 nM and 170 nM. Turning to yvmC/yvmB upstream (peak 14), the Kd is 2200 nM and 4400 nM. On the same count and under the same terms, with oriC dnaA-dnaN (peak 2) the figure was 160 nM and 300 nM.

The values are drawn from publication PMC4447404.
